Substrate: Nc1ncnc2c1ncn2[C@@H]1O[C@H](COP(=O)(O)OP(=O)(O)OP(=O)(O)O)[C@@H](O)[C@H]1O
Assay: NADH-coupled ATPase assay (pyruvate kinase / lactate dehydrogenase), fit with Hill coefficient
Type: biochemical, Mycolicibacterium smegmatis
Settings: 0.1 μM complex in 0.05% DDM micelles, 20 mM Tris-HCl pH 8.0, 150 mM NaCl, 5 mM MgCl2, 10% glycerol, 37 °C, Michaelis-Menten with Hill term (n = 1.28 ± 0.57)

B1: YrbE1A/B-MceG (core ABC transporter of the Mce1 system) (Mycolicibacterium smegmatis MC2 155) (protein)
chain: MGVQIDVTGLSKSFGSSKIWEDVTMSIPAGEVSVLLGPSGTGKSVFLKSLIGLLRPERGSIVIDGTDILQCSAKELYEIRTLFGVLFQDGALFGSMNIYDNTAFPLREHTKKSESEIRKIVMEKLDLVGMPNDGHKFPGEISGGMRKRAGLARALVLDPEIILCDEPDSGLDPVRTAYLSQLLIDINAQIDATVLIVTHNINIARTVPDNMGMLFRKQLVMFGPREVLLTSEEPVVKQFLNGRRIGPIGMSEEKDEATAAAEQALVDAGQHDGGVEEIEGVPPQLQATPGMPERKAVARRKARVREILHTLPPAAQAAILEELDRDQPQLSAPTTQTAATAPVENYDDSPTGVIEVPKQA
notes: YrbE1A, His6-YrbE1B and MceG co-expressed in E. coli BL21(λDE3); DDM-solubilised, TALON and SEC purified; with ABC transporter permease YrbE1A (Mce1 transmembrane domain protein); ABC transporter permease YrbE1B (Mce1 transmembrane domain protein)
With B1 the Km was 284 ± 311 µM and the kcat was 0.184 ± 0.125 μM ATP s^−1/μM complex.

Reference: article PMC10517005, “A conserved membrane protein negatively regulates Mce1 complexes in mycobacteria” (Nature Communications, 2023)
